From patent US20250289901A1 (CHONGQING GENRIX BIOPHARMACEUTICAL, published 2025) come the findings set out here.

The target of test [1] is T1, BCMA on the surface of NCI-H929 human plasma cell leukemia cell (human, UniProt Q02223 1-184).
T1 construct: whole, on cells; also called BCMA positive NCI-H929 cells; BCMA-positive tumor cells
T1 sequence (looked up): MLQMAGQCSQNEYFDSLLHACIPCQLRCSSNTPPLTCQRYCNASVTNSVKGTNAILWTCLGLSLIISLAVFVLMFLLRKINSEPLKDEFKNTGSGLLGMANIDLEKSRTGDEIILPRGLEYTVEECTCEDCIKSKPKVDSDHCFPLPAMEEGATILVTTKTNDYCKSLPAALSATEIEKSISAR
In words: flow cytometry on NCI-H929 cells, goat anti-human IgG-FITC. The procedure: NCI-H929 human plasma cell leukemia cells (Cell Resource Center, Institute of Basic Medicine, Chinese Academy of Medical Sciences) in logarithmic growth phase were harvested, centrifuged, and resuspended in PBS buffer containing 1% BSA to 2×10⁶ cells/mL, and plated at 100 μL/well in 96-well V bottom plates. […] Next, the cells were washed three times with 200 μL of PBS solution, and suspended in 100 μL of PBS solution. Thereafter, the FITC channel was detected by flow cytometer (ACEA, Novocyte).
Background: In flow cytometry, cells or beads pass a laser one at a time.

For test [2], the target named is T2, extracellular region of human BCMA with C-terminal His tag (human, UniProt Q02223 1-54).
T2 construct: No linker between the extracellular region and the tag is stated; also called hBCMA-his; hBCMA-His
T2 sequence: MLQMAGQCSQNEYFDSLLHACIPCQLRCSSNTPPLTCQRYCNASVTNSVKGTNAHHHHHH
The experiment in a line: bridging ELISA: CD3E-FcK/CD3D-FcH coated, antibody, then BCMA-His, detected with HRP anti-His. On the technique in general: ELISA stands for enzyme-linked immunosorbent assay.
Protocol: A 96-well ELISA plate was coated with CD3E-FcK/CD3D-FcH antigen (3 μg/mL, 100 μL/well), and was coated overnight in a refrigerator at 4° C. […] The ELISA plate was washed with PBS-0.1% Tween 20, followed by addition of BCMA-His antigen (1 μg/mL, 100 μL/well) and incubation at 37° C. for 1 hour. The ELISA plate was washed with PBS-0.1% Tween 20, followed by addition of HRP mouse anti-his IgG (Beijing ComWin Biotech Co., Ltd., cw0285M) and incubation at 37° C. for 1 hour. The ELISA plate was washed with PBS-0.1% Tween 20, and OPD substrate color development solution was added. The color development was terminated with 1 M H2SO4 after 5-10 minutes.

Test [3] addresses T3, CD3E on the surface of Jurkat human acute T lymphocyte leukemia cell (human, UniProt P07766 23-207).
T3 construct: whole, on cells; also called CD3 positive Jurkat cells
The experiment in a line: flow cytometry on Jurkat cells, goat anti-human IgG-FITC. The protocol:
Jurkat human acute T-lymphocyte leukemia cells (Cell Resource Center, Institute of Basic Medicine, Chinese Academy of Medical Sciences) in the logarithmic growth phase were harvested, centrifuged, and resuspended in PBS buffer containing 1% BSA to 2×10⁶ cells/mL, and plated at 100 μL/well in 96-well V bottom plates. […] Next, the cells were washed three times with 200 μL of PBS solution, and suspended in 100 μL of PBS solution. Thereafter, the FITC channel was detected by flow cytometer (ACEA, Novocyte).

The term EC50 (read off the curve) denotes the concentration that produces a half-maximal response. A low value points to a more potent agent.

T3 sequence (P07766 23-207): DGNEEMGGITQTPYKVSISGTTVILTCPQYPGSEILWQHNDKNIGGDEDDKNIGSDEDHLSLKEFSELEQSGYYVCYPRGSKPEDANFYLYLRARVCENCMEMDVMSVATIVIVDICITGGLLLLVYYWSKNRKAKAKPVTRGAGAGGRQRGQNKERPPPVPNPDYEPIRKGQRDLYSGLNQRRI

B1: bispecific antibody CD3ExBCMA (bispecific antibody, human IgG1, kappa)
heavy 1: QVQLVESGGGVVQPGRSLRLSCAASGFKFSGYGMHWVRQAPGKGLEWVAVIWFDGSRKYYVDSVKGRFTISRDNSKNTLYLQMNSLRAEDTAVYYCARQMGYWHFGLWGRGTLVTVSSASTKGPSVFPLAPSSKSTSGGTAALGCLVKDYFPEPVTVSWNSGALTSGVHTFPAVLQSSGLYSLSSVVTVPSSSLGTQTYICNVNHKPSNTKVDKRVEPKSCDKTHTCPPCPAPEFEGGPSVFLFPPKPKDTLMISRTPEVTCVVVDVSHEDPEVKFNWYVDGVEVHNAKTKPREEQYNSTYRVVSVLTVLHQDWLNGKEYKCKVSNKALPASIEKTISKAKGQPREPQVYTLPPCREEMTKNQVSLWCLVKGFYPSDIAVEWESNGQPENNYKTTPPVLDSDGSFFLYSKLTVDKSRWQQGNVFSCSVMHEALHNHYTQKSLSLSPGK
heavy 2: QVQLVQSGAEVKKPGSSVKVSCKASGYTFTNYWMHWVRQAPGQGLEWMGATYRGHSDTYYNQKFKGRVTITADKSTSTAYMELSSLRSEDTAVYYCTRGAVYAGYDVLDYWGQGTTVTVSSASTKGPSVFPLAPSSKSTSGGTAALGCLVKDYFPEPVTVSWNSGALTSGVHTFPAVLQSSGLYSLSSVVTVPSSSLGTQTYICNVNHKPSNTKVDKRVEPKSCDKTHTCPPCPAPEFEGGPSVFLFPPKPKDTLMISRTPEVTCVVVDVSHEDPEVKFNWYVDGVEVHNAKTKPREEQYNSTYRVVSVLTVLHQDWLNGKEYKCKVSNKALPASIEKTISKAKGQPREPQVCTLPPSREEMTKNQVSLSCAVKGFYPSDIAVEWESNGQPENNYKTTPPVLDSDGSFFLVSKLTVDKSRWQQGNVFSCSVMHEALHNHYTQKSLSLSPGK
light: not shown
notes: It is a knob-into-hole IgG1 heterodimer with a common light chain; also called CD3E × BCMA; CD3 × BCMA
For B1, the “EC50 (read off the curve)” value in test [1] is ~8 nM.

B2: anti-CD3E monoclonal antibody H10B7+L9B9 (antibody, human IgG1, kappa, V domains shown)
VH: QVQLVESGGGVVQPGRSLRLSCAASGFKFSGYGMHWVRQAPGKGLEWVAVIWFDGSRKYYVDSVKGRFTISRDNSKNTLYLQMNSLRAEDTAVYYCARQMGYWHFGLWGRGTLVTVSS
VL: DIQMTQSPSSLSASVGDRVTITCRASQSISNYLTWYQQKPGKAPKLLIYEASSRPSGVPSRFSGSGSGTDFTLTISSLQPEDFATYYCQQWSRLPVTFGQGTKVEIKR
Regarding B2, in test [2], the binding result is “no binding”. The “EC50 (read off the curve)” value in test [3] was ~1 nM.

B3: anti-BCMA monoclonal antibody H13F1+L9B9 (antibody, human IgG1, kappa, V domains shown)
VH: QVQLVQSGAEVKKPGSSVKVSCKASGYTFTNYWMHWVRQAPGQGLEWMGATYRGHSDTYYNQKFKGRVTITADKSTSTAYMELSSLRSEDTAVYYCTRGAVYAGYDVLDYWGQGTTVTVSS
VL: DIQMTQSPSSLSASVGDRVTITCRASQSISNYLTWYQQKPGKAPKLLIYEASSRPSGVPSRFSGSGSGTDFTLTISSLQPEDFATYYCQQWSRLPVTFGQGTKVEIKR
notes: also called mutant of C4 (IgG1 subtype)
On to B3, for which, in test [1], the “EC50 (read off the curve)” value is ~8 nM.
